We go through 2 variants from publication PMC10959724 (2024).

B1: wildtype TBK1 (TANK-binding kinase 1), mCitrine-Protein A fusion [not stated] / TRAF family member-associated NF-kB activator (TANK), NanoLuc-tagged [not stated] (parent complex)
chain 1: MQSTSNHLWLLSDILGQGATANVFRGRHKKTGDLFAIKVFNNISFLRPVDVQMREFEVLKKLNHKNIVKLFAIEEETTTRHKVLIMEFCPCGSLYTVLEEPSNAYGLPESEFLIVLRDVVGGMNHLRENGIVHRDIKPGNIMRVIGEDGQSVYKLTDFGAARELEDDEQFVSLYGTEEYLHPDMYERAVLRKDHQKKYGATVDLWSIGVTFYHAATGSLPFRPFEGPRRNKEVMYKIITGKPSGAISGVQKAENGPIDWSGDMPVSCSLSRGLQVLLTPVLANILEADQEKCWGFDQFFAETSDILHRMVIHVFSLQQMTAHKIYIHSYNTATIFHELVYKQTKIISSNQELIYEGRRLVLEPGRLAQHFPKTTEENPIFVVSREPLNTIGLIYEKISLPKVHPRYDLDGDASMAKAITGVVCYACRIASTLLLYQELMRKGIRWLIELIKDDYNETVHKKTEVVITLDFCIRNIEKTVKVYEKLMKINLEAAELGEISDIHTKLLRLSSSQGTIETSLQDIDSRLSPGGSLADAWAHQEGTHPKDRNVEKLQVLLNCMTEIYYQFKKDKAERRLAYNEEQIHKFDKQKLYYHATKAMTHFTDECVKKYEAFLNKSEEWIRKMLHLRKQLLSLTNQCFDIEEEVSKYQEYTNELQETLPQKMFTASSGIKHTMTPIYPSSNTLVEMTLGMKKLKEEMEGVVKELAENNHILERFGSLTMDGGLRNVDCL
chain 2: MDKNIGEQLNKAYEAFRQACMDRDSAVKELQQKTENYEQRIREQQEQLSLQQTIIDKLKSQLLLVNSTQDNNYGCVPLLEDSETRKNNLTLDQPQDKVISGIAREKLPKVRRQEVSSPRKETSARSLGSPLLHERGNIEKTFWDLKEEFHKICMLAKAQKDHLSKLNIPDTATETQCSVPIQCTDKTDKQEALFKPQAKDDINRGAPSITSVTPRGLCRDEEDTSFESLSKFNVKFPPMDNDSTFLHSTPERPGILSPATSEAVCQEKFNMEFRDNPGNFVKTEETLFEIQGIDPIASAIQNLKTTDKTKPSNLVNTCIRTTLDRAACLPPGDHNALYVNSFPLLDPSDAPFPSLDSPGKAIRGPQQPIWKPFPNQDSDSVVLSGTDSELHIPRVCEFCQAVFPPSITSRGDFLRHLNSHFNGET

Variants of B1 are the subject of one assay. As to the kind of experiment: LuTHy-BRET; live HEK293 cells; parent: 1; read off a plot. A general note: In BRET a luciferase serves as donor, and the signal depends on an acceptor being close.
As to chain 1 E696K, the ratio to parent is about 0.99. Turning to chain 1 R47H, the ratio to parent is about 1.

Variants of B1 are the subject of another assay. As to the kind of experiment: LuTHy-BRET donor saturation assay; live HEK293 cells; read at Acceptor:Donor = 4 (highest point of the curve); parent: 0.068; read off a plot.
Turning to chain 1 E696K, the response is about 0.062.
